Measurements as given in the supplement of paper PMC10567573.
± gives the standard deviation.

Test: protein stability index of a GFP-peptide fusion (GPS, HEK-293T) (PSI 1-6); higher = more stable
[1] = treatment: DMSO, c terminus: a fixed tail appended
[2] = treatment: MLN4924 1 uM, 8 h, c terminus: a fixed tail appended
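Also: 24-mer peptide tiles fused after GFP, lentivirally expressed, FACS-sorted into six equal bins by GFP/DsRed ratio, decoded by Illumina sequencing, PSI is the read-weighted mean bin number.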

Sequence	protein stability index [1]	protein stability index [2]	protein stability index (treatment: DMSO, c terminus: native)	protein stability index (treatment: MLN4924 1 uM, 8 h, c terminus: native)
DAEMELRAKEEERLNKLRLESEGS [HACD3]	5.56 ± 0.28	5.3 ± 0.24	–	–
DCLEGKKSKHAPRGTHLWEFIRDI [ELF3]	2.66 ± 0.2	2.66 ± 0.39	–	–
RGNTYALQTGPLLGRPDSLELQRQ [RSPH3]	3.87 ± 0.15	3.9 ± 0.26	–	–
KVEFTEEEIKTWGTVFQELNKLYP [TPH1]	2.77 ± 0.24	2.91 ± 0.34	–	–
KILPWSPEKIGTRFLLYTNENPNN [PNLIPRP1]	2.56 ± 0.28	2.89 ± 0.28	–	–
CYETLPRGQCLLYNWEEERATNHL [SPAG8]	2.92 ± 0.16	3.09 ± 0.23	–	–
ESENASLREKLRLREAEIARIRDE [LRRC45]	5.26 ± 0.17	5.11 ± 0.11	–	–
GQRGAQGAGRRRRAGGPPRPMSEP [SMAD6]	4.96 ± 0.21	5.08 ± 0.42	–	–
KKRRMGTYSLVPKKKTKVLKQRTV [EHMT1]	3.27 ± 0.22	3.82 ± 0.4	–	–
NRVFSLQDLCCRAIVSCTPVHLID [RAB40C]	2.53 ± 0.26	2.35 ± 0.27	–	–
RFRFGQDQLLLATGLNNGRIKIWD [WSB1]	2.25 ± 0.33	2.5 ± 0.32	–	–
RFYYQALSVAPQIGMPFNQLGTLA [SMG5]	2.63 ± 0.6	2.55 ± 0.61	–	–
CEPPSYRPMHHEDFKEDLKKFRTK [CDC25A]	4.89 ± 0.31	4.93 ± 0.28	–	–
PGGGAGMAAGFPYALRAYLGYQAV [CEBPB]	2.71 ± 0.77	2.72 ± 0.41	–	–
APVPEPPKEEQQQALEQFAAAAAH [EPB41L3]	5.54 ± 0.21	5.56 ± 0.17	–	–
YQQLEDDKLSQKSSSSKLSRSPLK [EPB41L3]	4.94 ± 0.6	5.04 ± 0.28	–	–
VTIKHVACGDFFTACLTDRGIIMT [NEK8]	2.96 ± 0.5	2.63 ± 0.35	–	–
TMLSHYRPFYVNKGNGIGSNEAP [TRIM29]	–	–	3.1 ± 0.24	3.14 ± 0.25
MASLSRPSLPSCLCSFLLLLLLQV [MOG]	2.5 ± 0.41	2.28 ± 0.19	–	–
VSISISGSSRPCLDFLQEVTRQPR [ASB7]	1.93 ± 0.48	2.05 ± 0.3	–	–
ASFDRRGEYIYTGNAKGKILVLKT [RBBP5]	2.02 ± 0.19	2.29 ± 0.32	–	–
LLRFGVPSPSTLEPHPRPLLQREL [TNXB]	3.08 ± 0.18	2.93 ± 0.23	–	–

Sequence	protein stability index [1]	protein stability index [2]	protein stability index (treatment: DMSO, c terminus: native)	protein stability index (treatment: MLN4924 1 uM, 8 h, c terminus: native)
VWKHGITPPLKNVRKKRFRKTQKK [TAF7L]	3.46 ± 0.16	3.86 ± 0.17	–	–
DPSKRALSRDTVQESYENVDSLES [ZNF263]	5.51 ± 0.065	5.56 ± 0.18	–	–
QNTHLTRHQRTHTGEKPYQCNICG [ZNF263]	4.01 ± 0.27	4.19 ± 0.32	–	–
LPSNPCATTNACEKPIGSCVTNPC [KRT33B]	4.29 ± 0.081	4.41 ± 0.17	–	–
SSSSSGVLMVGPNFRVGKKIGCGN [CSNK1G1]	3.58 ± 0.34	3.68 ± 0.11	–	–
KGVNRKLGRTGLYPSYKVREKIET [FUT8]	3.2 ± 0.31	3.4 ± 0.22	–	–
DSTTTRQRRSRQNPQSPPQDSSVT [HDAC6]	5.13 ± 0.24	5.53 ± 0.098	–	–
KDRMKSDHKRETERVVREALEKLR [ZMYND11]	3.18 ± 0.13	3.58 ± 0.32	–	–
CPATWGPSVEQAADSLDFDETFLA [FOXJ1]	4.56 ± 0.15	4.61 ± 0.064	–	–
VKQEIAEMRIPALNAYMKSLLSLP [NCF4]	2.27 ± 0.34	2.36 ± 0.28	–	–
SRGSSVSMSGGRFRCPTCRHEVIM [TRIM63]	2.43 ± 0.56	2.4 ± 0.38	–	–
GSDYVNANYIDGYRKQNAYIATQG [PTPRD]	3.51 ± 1.2	3.46 ± 0.28	–	–
GYPLPKLDMNFSLENREEPWVKEL [ZNF449]	3.53 ± 0.12	3.7 ± 0.2	–	–
AETDEHTGANTKKPEDTAEDLTAK [FAM9B]	5.74 ± 0.23	5.62 ± 0.12	–	–
RPSSPRPQKASPNGSISSAGNSSR [BTBD10]	4.97 ± 0.21	4.94 ± 0.3	–	–
KVEFPEARIYEETLNILLYEAQDG [KCTD10]	2.77 ± 0.15	2.94 ± 0.35	–	–
VAGDCLDEKQCKQCANKVLQHMKA [LRRC59]	3.74 ± 0.14	3.9 ± 0.43	–	–
QQYQSQAKQLFRKLNEQSPTRCTL [SEC22B]	3.46 ± 0.073	3.44 ± 0.27	–	–
SSVEDLKAKFCSTVANDVMLRTGL [NETO1]	2.97 ± 0.14	3.07 ± 0.14	–	–
KKEMNKSDLNTNNLLFKPPVESHI [KMT2E]	3.47 ± 0.39	4.12 ± 0.26	–	–
VPQPRPPGARTRAGAARVARWRRL [FBXO33]	4.39 ± 0.42	4.76 ± 0.21	–	–
CNPLRYSVLMGHGVCMGLVAAACA [OR10K2]	3.37 ± 0.59	2.83 ± 0.3	–	–

Sequence	protein stability index [1]	protein stability index [2]	protein stability index (treatment: DMSO, c terminus: native)	protein stability index (treatment: MLN4924 1 uM, 8 h, c terminus: native)
QYHHSKIRNRGYNLIYRSTRHLKR [TMEM192]	3.07 ± 0.25	2.98 ± 0.091	–	–
ELADARRALDDTARERAKLQIELG [LMNB1]	4.72 ± 0.075	4.69 ± 0.15	–	–
PRTRARLGANEVLLVVGGFGSQQS [KLHL12]	2.17 ± 0.12	1.97 ± 0.58	–	–
CAPYDSRLLGSARPELGAALGIYG [IRX6]	2.56 ± 0.37	2.13 ± 0.55	–	–
PAPTPTPPGRLGAPYSEAWGYFHL [ZBED3]	2.37 ± 0.27	2.23 ± 0.6	–	–
EFLWGPRAHAEIRKMSLLKFLAKV [MAGEA10]	2.38 ± 0.3	2.66 ± 0.17	–	–
YILECDHHGGDYKHWREWGSHAQT [CRYBA1]	2.32 ± 0.15	2.43 ± 0.51	–	–
TWKQELLKLMDRHKKDCAREKPFK [ZNF75A]	2.69 ± 0.25	2.88 ± 0.3	–	–
RMRLFGQRCQKCSWSQYEMPEFSS [RTP4]	2.42 ± 0.52	2.2 ± 0.23	–	–
DLDACALVRGHRRRLLRRLSPSRG [ZSWIM9]	4.11 ± 0.46	4.12 ± 0.29	–	–
VMYRIGCLRDDVVFFIYLYQRWIY [CLPTM1]	2.93 ± 0.66	2.71 ± 0.32	–	–
MPKNSKVTQREHSSEHVTESVADL [SLC6A17]	5.4 ± 0.14	5.45 ± 0.085	–	–
VISCTIFIVGMVGNATLLRIIYQN [EDNRA]	3.11 ± 0.14	2.29 ± 0.12	–	–
KGTFSDVTFKLDDGAISAHKPLLI [RHOBTB1]	2.47 ± 0.32	2.55 ± 0.33	–	–
VEATVKPELTAALRDIRAQYESIA [PRPH]	3.48 ± 0.16	3.4 ± 0.22	–	–
SPPLHANTSLHVFVLDENDNAPAV [PCDHGC5]	3.94 ± 0.23	3.81 ± 0.45	–	–
ILEHAHRGEQTTSQVSWEQDLKLF [FCHSD1]	3.43 ± 0.44	3.53 ± 0.68	–	–
KSNGFFHGISIPEPEDMETLEEKF [CDKL4]	4.5 ± 0.14	4.56 ± 0.27	–	–
QESKNQVHRRGEYNVYSTFQSHEP [PPP2R2B]	3.72 ± 0.38	4.2 ± 0.22	–	–
CRAPPPEARGIRAPPLPDSPQPLA [FCHO1]	4.2 ± 0.6	4.3 ± 0.22	–	–
MLCSQPGLANSSRVRGRVGTIRPV [C22orf15]	3.23 ± 0.27	3.37 ± 0.2	–	–
